# pKd: −log10 of the molar value.
# Molecular target: Insulin (UniProt P01308+P01308)
# Assay: flow
# Conditions: dT replaced by C8-alkyne-dU clicked with phenylalanine azide (positions incorporated by polymerase); bead-based assay, buffer
# Insulin, sequence (P01308 25-54, chain 1 of 2): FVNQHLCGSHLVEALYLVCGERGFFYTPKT
# Insulin, sequence (P01308 90-110, chain 2 of 2): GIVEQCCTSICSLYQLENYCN
sequence,measurement,value
GCGCATACCAGCTTATTCAATCGTCGAGAACTCCTCCGGCTCTAACTCCGATTATAGCCAAAGATAGTAAGTGCAATCTCGGC [Ins24],pKd,5.59

# From US20210324374
